Ends that are not written are not given here.
Experiments:
[1] = test system: hPSCs; test: HOX and NC gene expression (qRT-PCR) during neural crest differentiation of hPSCs; format: cell-based, human; conditions: for expression of HOX regulatory genes (CDX1, CDX2, CDX4): combined treatment with CHIR99021 and FGF2; for expression of posterior genes HoxB7, HoxC9, HoxA10 and CDX4: different concentrations of FGF2 and CHIR99021 together
Procedure: NC differentiation. The basic NC differentiation protocols used are based on previous works (Fattahi et al., Nature 531, 105-109, 2016; Tchieu et al., Cell Stem Cell 21, 399-410 e397, 2017). Briefly, matrigel (Thermo Fisher, A1413201) was diluted at 1:100 ratio in DMEMF-12 (Thermo Fisher, 21331020) and plates were coated with the diluted matrigel overnight at 4° C. For inducing differentiation, hESCs or iPSCs were dissociated at 70%-80% confluence using EDTA dissociation buffer and replated as a single cell suspension on matrigel-coated 24-well plates at a density of 100K cells/cm^2 in E6 medium containing 10 μM ROCK-inhibitor (Y-27632; R&D, 1254). The cells were kept in E6 medium (Thermo Fisher, A1516401)+Y-27632 overnight. The next day, the medium was switched to NC induction medium. For cranial differentiation, the cells were kept in E6 medium containing 10 μM SB431542 (R&D, 1614), […] (R&D, 314-BP), and 0.6 μM CHIR (R&D, 4423) for the first 2 days and then switched to E6 medium containing 10 μM SB431542 and 1.5 μM CHIR for 10 days. For vagal NC the same conditions were used with an additional 1 μM RA (Sigma, R2625) added to the medium starting from D6. To establish the sacral NC protocol, the cranial NC protocol was modified with varying concentrations of FGF2 (R&D, 233-FB/CF), CHIR and GDF11 (Peprotech, 120-11), added at different time points as detailed in the results section. For the generation of melanocytes, 100 nM EDN3 (American Peptide company, 88-5-10B) was added to the sacral NC protocol from day 14 to day 20. In experiments testing the RA hypothesis, the sacral NC protocol was modified using either 1 μM RA (Sigma, R2625) or 100 nM AGN (Tocris, 5758) as detailed in the experimental design section.
RNA extraction and RT-qPCR. RNA was prepared from samples collected with the Zymo Direct-zol Kit and extracted using the Direct-zol RNA MiniPrep kit. cDNA was generated using the iScript Reverse Transcription Supermix for RT-qPCR. For qPCR analysis, primers were obtained from QIAGEN or IDT and the reactions were performed following manufacturers' instructions using SsoFast EvaGreen® Supermix. The Assays were run on BioRad CFX384 Real-Time PCR machine. Results were normalized to GAPDH housekeeping genes.

[2] = test system: rodent GSK3β homologs; conditions: against rodent GSK3β homologs; cited from earlier work
[3] = test system: vagal NC; test: Migration (surface area) of NC cells in response to growth factors; format: cell-based, human; conditions: 0.1x, 1x, 10x of standard concentration (100 nM EDN3, 25 ng/ml GDNF)
Procedure: (§1) Fluorescence image of cells and their migration at different time points: 0 hour (upper panel), 24 hours (middle panel), 48 hours (bottom panel). Scale bars, 50 pm. […] Scale bars, 500 pm. […] N=6 biological replicates. FIGS. 32D and 32E show surface area VNC or SNC cells in response to different growth factors. 1 equates to standard concentration (100 nM and 25 ng/ml for EDN3 and GDN F respectively), 0.1 equates to 1/10 of standard concentration and 10 equates to 10 times higher than the standard concentration. Surface area is quantified by ImageJ. N=4 biological replicates. […] The images are taken at different time points after transplantation: 1 Hour (left panel), 2 weeks (middle panel), 4 weeks (right panel). […] Data are present as Mean±SEM; ns: not significant P>0.05; *P≤0.05; **P≤0.01; ***P≤0.001; ****P≤0.0001
(§2) Migration and co-differentiation assays. Transwell assay: to test capacity of NC cells for invasion, we used the CytoSelect 24-Well Cell Invasion Assay, Basement (Cell Biolabs). We plated 200K cells per chamber in neural spheroids medium and added 500 μL of neural spheroid medium containing 10% fetal bovine serum to the lower well of the invasion plate and incubated the plate for 48 h at 37° C. in 5% CO2 atmosphere. Cells that crossed through the invasion chamber were stained with the Cell Stain Solution provided with the kit (Cell Biolabs) and examined under the microscope. The stained cells were then lysed and measured by plate reader for quantification. Migration assay: vagal or sacral neural spheroids were generated as described in enteric neuron differentiation section. Those spheroids were plated down on a 2D PO/LM/FN coated plated for assessing surface migration or embedded in […]) Matrigel for assessing migration within a Matrigel pellet. Pictures were taken at sequential time points post plating to trace the migration process. Scratch assay: vagal or sacral NC cells were plated on PO/LM/FN coated 24 well plates at density of 100×10^3 cells per cm^2. After 24 h, the culture lawn is scratched manually using a pipette tip. Live images are taken at different time points after the scratch was made to trace the migration.

[4] = test system: sacral NC; test: as above; format: cell-based, human
Procedure: as §1, §2

[5] = test system: hPSCs; test: RNA-seq and ATAC-seq of NC differentiation with or without GDF11; format: cell-based, human
Procedure: RNA sequencing (RNA-seq). Cells were disassociated with Accutase for 20 minutes at 37° C. The cells were collected into 15 mL falcon tubes and DMEMF-12 containing 2% FBS was added to neutralize the enzyme. The cells were spun down and washed with PBS twice. The cells were spun down again in 1.5 mL Eppendorf tube and resuspended in 500 μL TRIzol (ThermoFisher catalog #15596018) and stored at −80° C. When all data points were collected, the samples underwent RNA extraction and RNA-seq as performed by the IGO core at MSKCC. Briefly, phase separation in cells lysed in 1 mL TRIzol Reagent was induced with 200 μL chloroform and RNA was extracted from the aqueous phase using the miRNeasy Mini Kit (Qiagen catalog #217004) on the QIAcube Connect (Qiagen) according to the manufacturer's protocol with 350 μL input. Samples were eluted in 15 μL RNase-free water. After RiboGreen quantification and quality control by Agilent BioAnalyzer, 500 ng of total RNA with RIN values of 9.6-10 underwent polyA selection and TruSeq library preparation according to instructions provided by Illumina (TruSeq Stranded mRNA LT Kit, catalog #RS-122-2102), with 8 cycles of PCR. Samples were barcoded and run on a HiSeq 4000 in a PE100 run, using the HiSeq 3000/4000 SBS Kit (Illumina). An average of 53 million paired reads was generated per sample and the percent of mRNA bases averaged 85%.
RNA-seq bioinformatics. STAR aligner (Dobin et al., Bioinformatics 29, 15-21, 2013) was used to map reads to the human genome (GRCh37). The 2-pass mapping method (Engström et al., Nature methods 10, 1185-1191, 2013) was used, in which the reads are mapped twice. SAM files were processed and converted to BAM format using PICARD tools and then HTseq was used to compute the expression count matrix from the mapped reads. DESeq2 (Love et al., Genome Biology 15, 550, 2014) was used to normalize the raw counts (Median of Ratios method) and perform differential gene expression analysis. Data are presented on a gene-by-gene basis as normalized counts or after carrying out a variance-stabilizing transformation followed by PCA analysis.
ATAC sequencing (ATAC-seq). Cells were disassociated with Accutase for 20 minutes at 37° C. The cells were collected into 15 mL falcon tubes and DMEMF-12 containing 2% FBS was added to neutralize the enzyme. The cells were spun down and washed with PBS twice. The cells were spun again in a 1.5 mL Eppendorf tube and resuspended in 500 μL stem cell banker cell freezing buffer and stored at liquid nitrogen tank. When all data points were collected, the samples were sent to IGO core. ATAC-seq was performed by IGO core at MSKCC. Profiling of chromatin was performed by ATAC-Seq as described in Buenrostro et al., Nat Methods 10, 1213-1218, 2013. Briefly, 50,000 viably frozen neural crest cells were washed in cold PBS and lysed. The transposition reaction was carried out using TDEI Tagment DNA Enzyme (Illumina catalog #20034198) incubated at 37° C. for 30 minutes. The DNA was cleaned with the MinElute PCR Purification Kit (QIAGEN catalog #28004) and material was amplified for 5 cycles using NEBNext High-Fidelity 2×PCR Master Mix (New England Biolabs catalog #M0541L). After evaluation by real-time PCR, 7-10 additional PCR cycles were done. The final product was cleaned by aMPure XP beads (Beckman Coulter catalog #A63882) at a 1× ratio, and size selection was performed at a 0.5× ratio. […] An average of 42 million paired reads were generated per sample. […]

[6] = low to medium level of EDN3, GDNF
[7] = RNA seq, day 3, following GDF11 treatment
[8] = early exposure to GDF11 in combination with FGF2 and CHIR

Cc1ccc(C2=CCC(C)(C)c3ccc(C#Cc4ccc(C(=O)O)cc4)cc32)cc1 [AGN, reference compound]
HOXC9 expression ([1]; RA 1 μM or AGN 100 nM added to NC protocol): increased | sacral HOX gene expression ([1]; RA inhibition in GDF11 treated cultures): minimal impact | HOXC10 expression ([1]; RA inhibition in trunk NC (BMP condition)): promoted

Cc1c[nH]c(-c2cnc(NCCNc3ccc(C#N)cn3)nc2-c2ccc(Cl)cc2Cl)n1 [CHIR99021, 6-(2-(4-(2,4-dichlorophenyl)-5-(4-methyl-1H-imidazol-2-yl)pyrimidin-2-ylamino)ethylamino)nicotinonitrile, reference compound]
IC50 values [2]: nanomolar | expression of HOX regulatory genes (CDX1, CDX2, CDX4) [1]: induced expression | expression of posterior genes HoxB7, HoxC9, HoxA10 and CDX4 [1]: induced the expression

EDN3: growth factor EDN3 (American Peptide company, 88-5-10B) (CTCFTYKDKECVYYCHLDIIW; ends and bridges not checked; cysteine pairing not given here; UniProt P14138 97-117, looked up)
vagal NC migration [3]: highly promoted | sacral NC migration ([4]; high EDN3 concentration): suppressed | sacral NC migration [4, 6]: promoted

FGF2: activator of FGF signaling (R&D, 233-FB/CF)
expression of HOX regulatory genes (CDX1, CDX2, CDX4) [1]: induced expression | expression of posterior genes HoxB7, HoxC9, HoxA10 and CDX4 [1]: induced the expression

B1: GDNF: glial cell line derived neurotrophic factor (Peprotech, 450-10) (protein, UniProt P39905 78-211, looked up)
Glial cell line-derived …: SPDKQMAVLPRRERNRQAAAANPENSRGKGRRGQRGKNRGCVLTAIHLNVTDLGLGYETKEELIFRYCSGSCDAAETTYDKILKNLSRNRRLVSDKVGQACCRPIAFDDDLSFLDDNLVYHILRKHSAKRCGCI
vagal NC migration [3]: barely affected | sacral NC migration [4, 6]: promoted

B2: GDF11: growth differentiation factor 11 or bone morphogenetic protein 11, a TGFβ family protein encoded by the GDF11 gene (protein, UniProt O95390 299-407, looked up)
Growth/differentiation factor …: NLGLDCDEHSSESRCCRYPLTVDFEAFGWDWIIAPKRYKANYCSGQCEYMFMQKYPHTHLVQQANPRGSAGPCCTPTKMSPINMLYFNDKQQIIYGKIPGMVVDRCGCS
levels of H3K4 methyltransferases such as SMYD2 [5, 7]: decreased levels | levels of H3K27Me3 demethylases JMJD6 and KDM6B [5, 7]: increased levels | gene expression of GRHL1, GRHL2 and GRHL3 ([5]; following GDF11 exposure): significant decrease | chromatin accessibility of GRHL factors ([5]; following GDF11 exposure, ATAC-seq): significant decrease | expression of RA signaling genes CRABP2, CYP26A1 and RBP4 ([5]; following GDF11 treatment): reduced | transition from TNCs to SNCs [1]: promoted the transition | expression of posterior Hox genes by time of addition ([1]; GDF11 added from day 0 to day 3 versus later time points): higher expression | expression of stem cell-related factors SOX2 and MYC ([1]; GDF11 treated cultures): increased expression | expression of the more anterior HOX genes (HOX4-9) [1, 8]: without affecting | sacral HOX gene expression (HOX10-13) [1, 8]: dramatic and selective increase
